The text below walks through data of patent publication US20220135690A1 (TWIST BIOSCIENCE, published 2022).

Broadly, the IC50 is the point on the concentration scale where inhibition reaches its midpoint. Higher therefore signals a need for much substance.

Assay [1] deals with CXCR4 chemokine receptor (Pan troglodytes (Chimpanzee), UniProt P61072 1-352). The assay can be described thus: cell-based or functional assay.
The target in assay [2] is T1, CXCR4 chemokine receptor (UniProt P61072 1-352).
T1 chain: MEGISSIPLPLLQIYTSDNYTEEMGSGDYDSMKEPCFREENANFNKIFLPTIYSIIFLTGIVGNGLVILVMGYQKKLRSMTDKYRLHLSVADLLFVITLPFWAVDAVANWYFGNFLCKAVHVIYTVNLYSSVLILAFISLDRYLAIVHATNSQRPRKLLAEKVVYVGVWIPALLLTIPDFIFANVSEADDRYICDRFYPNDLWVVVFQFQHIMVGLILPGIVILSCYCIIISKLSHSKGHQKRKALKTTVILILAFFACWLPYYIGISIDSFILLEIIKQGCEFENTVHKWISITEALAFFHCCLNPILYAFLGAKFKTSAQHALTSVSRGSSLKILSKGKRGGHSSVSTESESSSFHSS
The assay can be described thus: HTRF ligand competition. In general terms: TR-FRET usually uses a lanthanide donor and a delayed reading to cut background.

B1: CXCR4-81-6 (antibody, V domains shown)
VH: EVQLVESGGGLVQAGGSLRLSCAASGRTFSSYAMGWFRQAPGKEREFVAAISWSGGSTYYADSVKGRFTISADNAKNTVYLQMNSLKPEDTAVYYCAAARGYWRWRLGRRYDYWGQGTQVTVSS
VL: DIQMTQSPSSLSASVGDRVTITCRASQSVTTYLNWYQQKPGKAPKLLIYGSSNLQSGVPSRFSGSGSGTDFTLTISSLQPEDFATYYCQQGYSTPWTFGGGTKVEIKR
As to B1, the “IC50 in cAMP assay” value in assay [1] is 0.9 nM. In addition, the IC50 in assay [2] turned out to be 0.687 nM.
